# T1: recombinant human IL-2Rβ (human, UniProt P14784 27-240)
# T1 construct: also called CD122; interleukin 2 receptor β
# T1 sequence (looked up): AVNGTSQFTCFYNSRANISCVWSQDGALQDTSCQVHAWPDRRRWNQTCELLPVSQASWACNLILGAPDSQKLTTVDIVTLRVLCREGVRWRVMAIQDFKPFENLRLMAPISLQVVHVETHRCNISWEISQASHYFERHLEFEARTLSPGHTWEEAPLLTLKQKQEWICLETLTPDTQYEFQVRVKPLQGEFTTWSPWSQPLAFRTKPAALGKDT
# T2: recombinant human γc (human, UniProt P31785 23-262, limits assumed)
# T2 construct: also called common γ chain; IL-2Rγ
# T2 sequence (looked up): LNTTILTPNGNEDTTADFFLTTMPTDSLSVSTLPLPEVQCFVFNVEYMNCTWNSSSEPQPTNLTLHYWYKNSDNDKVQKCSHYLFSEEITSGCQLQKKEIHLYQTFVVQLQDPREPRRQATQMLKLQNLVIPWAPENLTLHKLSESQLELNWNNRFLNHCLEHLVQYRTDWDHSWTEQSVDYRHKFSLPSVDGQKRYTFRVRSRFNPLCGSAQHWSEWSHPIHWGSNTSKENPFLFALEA
# B1: P2C4_FW2 single chain antibody (scFv)
# scFv: EVQLVQSGAEVKKPGASVKVSCKASGYTFTNYYMHWVRQAPGQGLEWMGAIMPSRGGTSYPQKFQGRVTITADKSTSTAYMELSSLRSEDTAVYYCARGEYYYDSSGYYYWGQGTLVTVSSGGGGSGGGGSGGGGSQSVLTQPPSVSGAPGQRVTISCTGTSSDIGHYDFVSWYQQLPGTAPKLLIYDINNRPSGVPDRFSGSKSGTSASLAITGLQAEDEADYYCSAYTSSDTLVFGGGTKLTVL
# B2: P1A3_FW2 single chain antibody (scFv)
# scFv: EVQLVESGGGLVQPGGSLRLSCAASGGSFSGYYWSWVRQAPGKGLEWVSEINHSGSTNYNPSLKSRFTISRDNSKNTLYLQMNSLRAEDTAVYYCARSPGGYSGGYFQHWGQGTLVTVSSGGGGSGGGGSGGGGSDIQMTQSPSSLSASVGDRVTITCRSSQSLLHSNGYNYLDWYQQKPGKAPKLLIYLGSNRDSGVPSRFSGSGSGTDFTLTISSLQPEDFATYYCMQGTHWPWTFGQGTKVEIK
# Experiments:
# [1] = molecular target: T1, recombinant human IL-2Rβ; experiment: ELISA, scFv titrated (nM) on IL-2Rβ
# [2] = molecular target: T2, recombinant human γc; experiment: ELISA, scFv titrated (nM) on γc (IL-2Rγc)
Binder,EC50 (read off the curve) [1] [nM],EC50 (read off the curve) [2] [nM]
B1,~1,
B2,,~60
